Measured values: the nanobody polyreactivity screen of Harvey et al. (2022)

Assay: yeast display, Sf9 membrane polyspecificity reagent, FACS + sequencing; frameworks hold sequencing errors
In short: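 Polyreactivity labels are assigned by the sorting gate from which each nanobody was recovered. The gates were low and high (top ~1%), set on anti-HA fluorescence for expression and streptavidin fluorescence for reagent binding. Before sorting, galactose-induced (36–48 hours) yeast display cells were stained for 1 hour at 4 °C with 10% biotinylated, detergent-solubilized Sf9 membrane reagent.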

Row | Sequence | polyreactivity (PSR sort gate)
1 | QDQLVESGGGLVQAGGSLRLSCAASGRIFVYYVMGLYRQAPGKERELVAAITYSGGSTYYADSVKGRFTISRDNAKNTVYLQMNSLKPEDTAVYYCNNVDAFGIVRLYYWGQGTQVTVSS | low polyreactivity
2 | QDQLVESGGGLVQAGGSLRLSCAASGRIFYPYVMGWYRQAPGKERELVAAISDSTGSTYYADSVKGRFTISRDNAKNTVYLQMNSLKPEDTAVYYWGQGTQVTVSS | low polyreactivity
3 | QDQLVESGGGLVQAGGSLRLSCAASGRIFYTNGMGWYRQAPGKERELVAAITYSGGNTFYADSVKGRFTISRDNAKNTVYLQMNSLKPEDTAVYYCAATFTYLGYWYDYWGQGTQVTVSS | low polyreactivity
4 | QDQLVESGGGLVQAGGSLRLSCAASGRIIRQYAMGWYRQAPGKERELVAVISAGGARTYYADSVKGRFTISRDNAKNTVYLQMNSLKPEDTAVYYCAVSYPPGAYRRHFRYGYWGQGTQVTVSS | high polyreactivity
5 | QDQLVESGGGLVQAGGSLRLSCAASGRILAYYAMGWSRQAPGKERELVAAISRAGSTNYADSVKGRFTISRDNAKNTVYLQMNSLKPEDTAVYYCAARPYRRGYNYWGQGTQVTVSS | high polyreactivity
6 | QDQLVESGGGLVQAGGSLRLSCAASGRILLDNAMGWYRQAPGKERELVAAISSGGRTYYADSVKGRFTISRDNAKNTVYLQLNSLKPEDTAVYYCAVSGGFYWGQGTQVTVSS | high polyreactivity
7 | QDQLVESGGGLVQAGGSLRLSCAASGRILTKYAMGWYRQAPGKERELVAAISDSGTGTYYADSVKGRFTISRDNAKNTVYLQMNSLKPEDTAVYYCNAQTRRTRTYHGHKYGYWGQGTQVTVSS | high polyreactivity
8 | QDQLVESGGGLVQAGGSLRLSCAASGRISPRYAMGWYRQAPGKERELVAAIDTSDGTTYFADSVKGRFTISRDNAKNTVYLQMNSLKPEDTAVYYCAAEGQLFDLYDYWGQGTQGTVSS | low polyreactivity
9 | QDQLVESGGGLVQAGGSLRLSCAASGRNIGGYAMGWNRLAPGKEWELVAAISRSGGSTYYADSVKGRFTISRDNAKNTVYLQMNSLKPEDTAVYYCAAETVSSFYTLWTGKYDYWGQGTQVTVSS | high polyreactivity
10 | QDQLVESGGGLVQAGGSLRLSCAASGRTFAYNAMGWYRQAPGKERELVADITSGGSTYYADSVKGRFTIARDNAKNKVYLQMNSLKPEDTAVYYCAAYTQFWYWDYNYWGQGTQVTVSS | high polyreactivity
11 | QDQLVESGGGLVQAGGSLRLSCAASGRTFHKYAMGWSRQAPGKEMELVAAITGSGVRTYYADSVKGRFTISRDNAKNTVYLQMNSLKPEDTAVYYGNADSYNRNGDYWGQGTQVTVSS | high polyreactivity
12 | QDQLVESGGGLVQAGGSLRLSCAASGRTFNGYAMGWYRQAPGKDRELVARITYRGGGTYYADSVKGRFTISRDNAKNTVYLQMNILKTEDTAVYYCNARGVQYRYYYWGQGTQVTVSS | high polyreactivity
13 | QDQLVESGGGLVQAGGSLRLSCAASGRTFRRYALGWYRQAPGKETELVAVISGGGTYYADSVKGRFTISRDNAKNTVYLQMNSLKPEDTAVYYCAARYRQTRSPSYDYWGQGTQVTVSS | high polyreactivity
14 | QDQLVESGGGLVQAGGSLRLSCAASGRTFRRYTKGWYRQAPGKERELVAAISRGGSTNYADSVKGRFTISRDNAMNTFYLQMNSLKPEDTAVYYCNADYWYDWNSYDYWGQGTQVTVSS | high polyreactivity
15 | QDQLVESGGGLVQAGGSLRLSCAASGRTFTRYTMGRYRPAPVKERELVAAISSGGSTTYADSVKGRFTISRDNAKNTVYLQMNSLKPEDTAVYYCAAGLVYRGYRRDYWGQGTQVTVSS | low polyreactivity
16 | QDQLVESGGGLVQAGGSLRLSCAASGRTFTYYTMGWYRQAPGKERELVAAITWSGGRTYYADSVKGRFTISRDYAKNTVYLQMNSLKPEDTAVYYCAKPPQGTYDYWGQGTQVNVSS | low polyreactivity
17 | QDQLVESGGGLVQAGGSLRLSCAASGRTFVSYAMGWYRQAPGKERELVAGISWSGDSTYYADSEKGRFTISRDNAKNTVYLQMNSLKPEDTAVYYCAAVQRTDRSAHYSWGQGTQVTLSS | low polyreactivity
18 | QDQLVESGGGLVQAGGSLRLSCAASGRTFVTYAMGWYRQAPGKEREFVAAITWSTGTSTYYADSVKGRFTISRDNAKNTVYLQMNSLKPEDTAGYYCAAYYVVHFGYWGQGTQVTVSS | low polyreactivity
19 | QDQLVESGGGLVQAGGSLRLSCAASGRTFYANAMGWNRQAPGKERELVAAISSSDDITYYADSVKGRFTNSRDNAKNTVYLQINSMKPEDTAVYYCAAEEYIVTYSGFWQEYEYWGQGTQVTVSS | high polyreactivity
20 | QDQLVESGGGLVQAGGSLRLSCAASGRTFYCYAMGGYRQAPGKDRELVAAISSGDITSYADSVKGRFTISRDNAKNTVYLQMNSVKPEDTAVYYCAAEVVAWSLYEDFKTYDYWGQGTQVTVSS | low polyreactivity
21 | QDQLVESGGGLVQAGGSLRLSCAASGRTFYRYTMGWYRQAPGKESELVAGISWRGGTTYYADSVKGRFTISRDNAKNTVYLQMNSLKPEDTAVYYCAAKAGYRYGSLAYYKYDYWGQGTQVTVSS | high polyreactivity
22 | QDQLVESGGGLVQAGGSLRLSCAASGRTLWRNTMGWYRQAPGKERELVAAITTRGGSTYYADSVKGRFTISRDNAKNTVYLQLNSLKPEDTAVYYCAARTYTGEGSGRFYYWGQGTQVTVSS | high polyreactivity

Row | Sequence | polyreactivity (PSR sort gate)
23 | QDQLVESGGGLVQAGGSLRLSCAASGRTSIWNAMGWYRQAPGKERELVASISWSGGSTYYADSVKGRFTISRDNAKNTVYLQMNSLKPEDTAVYYCAKTAYFLVFNEHLHKKRYDSWGQGTQVTVSS | low polyreactivity
24 | QDQLVESGGGLVQAGGSLRLSCAASGSIFAGYAMGWYRQAPGKESELVAAITSGGRTYYADSVKGRFTISRDNAKNTVYLQMNSLKPEDTAVYYCAKRWYTKTGYDYWGQGTQVTVSS | high polyreactivity
25 | QDQLVESGGGLVQAGGSLRLSCAASGSIFAWNAMGWYRQAPGKERELVAVITSGGSTNYADSVKGRFTISRDNAKNTVYLQMNSLKPEDTAVYYCAARSWVYSVIGDYWGQVTQVTVSS | low polyreactivity
26 | QDQLVESGGGLVQAGGSLRLSCAASGSIFFTNDMGWYRQAHGKEREFVAAITGGGGSTYYADSVKGRFTISRDNAKNTVYLQMNSLKPEDTAVYYCATKAKPRSGYNYWGQGTQVTVSS | low polyreactivity
27 | QDQLVESGGGLVQAGGSLRLSCAASGSIFGGYGMGWYRQAPGKERELVAAITSGSSTYYADSVKGRFTISRDNAKNTVYLQMNSLKPEDTAVYYCAARPYPHSAYQGDYWGRGTQVTVSS | low polyreactivity
28 | QDQLVESGGGLVQAGGSLRLSCAASGSIFGSYAMGWYRQAPGKEMELVAAISYSGASTYYADSVKGRFTISRDNAKNTVYLQMNSLKPEDTAVYYCNKDPRWRRFNYWGQGTQVTVSS | high polyreactivity
29 | QDQLVESGGGLVQAGGSLRLSCAASGSIFHGYGRGWYRQAPGKERELVASITWIGGDTYYADSVKGRFTISRDNPKNTVYLQMNSLKPEDTAVYYCNAEWVVTYIYDYWGQGTQVTVSS | low polyreactivity
30 | QDQLVESGGGLVQAGGSLRLSCAASGSIFIQYAMGWYRQAPGKERQFVAAITSGGGSTYYADSVKGRFTISRDNAMNTVYLQLNSLKPEDTAVYYCAVDRTRRPALPFVTLDRGYWGQGTQVTVSS | low polyreactivity
31 | QDQLVESGGGLVQAGGSLRLSCAASGSIFPDYVMGWYRQAPGKERELVAAISASGGSTYYADSVKGRFTISRDNEKNTVYLKMNSLKPEDTAVYYCNASPKTYLRRKYDYWGQGTQVTVSS | high polyreactivity
32 | QDQLVESGGGLVQAGGSLRLSCAASGSIFPSNTMGWYRQAPGKERELVAAITGSGGSTYYADSVKGRFTISRDNAKNTVYLQMNSLKPEDTAVYYCAARYRVDGVKYGYWGQGTQVTVSS | high polyreactivity
33 | QDQLVESGGGLVQAGGSLRLSCAASGSIFRVYAMGRYRQAPGKERELVAAISSIVGSTYYADSVKGRFTISRDNAKNSVYLQMNSLKPEDTAVYDCNKEGTWPRTGSEYDSWGQGSQVTVSS | low polyreactivity
34 | QDQLVESGGGLVQAGGSLRLSCAASGSIFSFYAMGWYSQATGKERELVAGIRWRGGTSTFYADSVKGRFTISRDNEKNTVYLQMNSLNPEDTAVYYCADKRRTGGNGYWGQGTQVTVSS | high polyreactivity
35 | QDQLVESGGGLVQAGGSLRLSCAASGSIFTYNAMGWYRPAPGKERELVAAINTSGSTNYADSVKGRFTISRDNAKNTVYLQKYSLKPEDTAVYYCAAGIVVTVYDYWRQGTQVTVSS | low polyreactivity
36 | QDQLVESGGGLVQAGGSLRLSCAASGSIFVNNAMGWYRQAPGKERELVAAISRSGGNTYYADSVKGRFTISRDNAKNTVYLQMNSLKPEDTAVYYCAADFRGRYGYWGQGTQVTVSS | high polyreactivity
37 | QDQLVESGGGLVQAGGSLRLSCAASGSIFWYYGMGWYRQAPGKERELVAAISSGGSTNYADSVKGRFAISRDNAKNTVYLQMNSLKPEDTAVYYCAVRFTFPRYPASYSRYYYWGQGTQVTVSS | high polyreactivity
38 | QDQLVESGGGLVQAGGSLRLSCAASGSIFYAYTMGWYRQAPGKEMELVASITKSGGSTYYADSVKGRFTISRDNAKNTVYLQMNSLKPEDTAVYYCAAVVGRNRTRSYGYWGQGTQVTVSS | high polyreactivity
39 | QDQLVESGGGLVQAGGSLRLSCAASGSIFYRNAMGWYIQATGKERELVAAISSDGSTNYADSVKGRFTISRDNAKNTVYLQMNSLKPEDTAVYFCAAPWTQILDYWGQGTQVTVSS | low polyreactivity
40 | QDQLVESGGGLVQAGGSLRLSCAASGSLFDLYAMGWYRQAPGKERELVAAISWSDSRTYYADSVKGRFTISRDNAKNTVYLQMNSLKPEDTAVYYCAADYRYPDNYGGYDYWGQGTQVTVSS | low polyreactivity
41 | QDQLVESGGGLVQAGGSLRLSCAASGSTFETNAMGWYRQAPGKERELVAAISGRGGSTYYADSVKGRFTFSRDNAKNTVYLQMNSLKPEDTAVFYCDATYGTGRRSKYGYCGQGTQVTVSS | high polyreactivity
42 | QDQLVESGGGLVQAGGSLRLSCAASGSTFGDYTMGSYRQAPGKEREFVAAITVSVGSTYFADSVKGRFTISRDTAKNTVYLQMNSVKPEDTAFYYCNTDRDPYYHYFDGLYYYWGQGTQVTVSS | low polyreactivity
43 | QDQLVESGGGLVQAGGSLRLSCAASGSTFGFNAMGWDRQAPGKERELVAAITWSGGSTYYADSVKGRFTISRDNAKNTVYLQMNSLKPEDTAVYYCARETYGDYVHYDYWGQGTQVTLSS | low polyreactivity
